{"source": "paper PMC4935975", "about": "“A neomorphic cancer cell-specific role of MAGE-A4 in trans-lesion synthesis” (Nature Communications, 2016)", "molecular_target": "T1, Hexa-histidine-tagged MAGE-A4 (human (open reading frame amplified …, UniProt P43358 1-317))", "T1 construct": "MAGE-A4, full-length recombinant; the MAGE-A4 open reading frame was PCR amplified from H1299 genomic DNA; Expressed from pRSET; also called His-MAGE-A4; 6 × His–MAGE-A4; source: E. coli BL21 (DE3), purified", "T1 sequence (looked up)": "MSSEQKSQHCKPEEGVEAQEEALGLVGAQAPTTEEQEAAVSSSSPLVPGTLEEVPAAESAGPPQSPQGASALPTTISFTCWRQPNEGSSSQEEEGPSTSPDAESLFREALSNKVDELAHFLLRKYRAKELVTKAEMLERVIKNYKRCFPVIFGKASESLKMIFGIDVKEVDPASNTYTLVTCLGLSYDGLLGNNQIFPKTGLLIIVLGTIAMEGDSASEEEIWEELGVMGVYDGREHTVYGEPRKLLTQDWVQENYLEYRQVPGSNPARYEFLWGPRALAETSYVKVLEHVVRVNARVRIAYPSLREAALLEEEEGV", "assay": "pull-down; recombinant 6 × His–MAGE-A4 (1 μg) incubated in 1 ml CSK+1% BSA with GST or GST–RAD18 (0.3 μg), 2 h at 4 °C; glutathione sepharose beads; washed three times in CSK+1% BSA; immunoblot", "settings": "both partners purified"}
{"binder": "GST–RAD18 267-402 (domain or fragment, UniProt Q9NS91 267-402, looked up, Expressed from pGEX2T; source: E. coli BL21 (DE3), purified) IQGNKQQLIKRHQEFVHMYNAQCDALHPKSAAEIVREIENIEKTRMRLEASKLNESVMVFTKDQTEKEIDEIHSKYRKKHKSEFQLLVDQARKGYKKIAGMSQKTVTITKEDESTEKLSSVCMGQEDNMTSVTNHF", "values": [{"measurement": "binding result", "value": "binds"}]}
